1 molecule from patent publication US12528864 (GlaxoSmithKline, dated 2026) can be followed below.

The target in assay [1] is T1, cynomolgus monkey CD96, native, on primary cynomolgus monkey T cells (cynomolgus monkey, UniProt A0A2K5TWV6 22-569).
T1 construct: whole, on cells
T1 sequence: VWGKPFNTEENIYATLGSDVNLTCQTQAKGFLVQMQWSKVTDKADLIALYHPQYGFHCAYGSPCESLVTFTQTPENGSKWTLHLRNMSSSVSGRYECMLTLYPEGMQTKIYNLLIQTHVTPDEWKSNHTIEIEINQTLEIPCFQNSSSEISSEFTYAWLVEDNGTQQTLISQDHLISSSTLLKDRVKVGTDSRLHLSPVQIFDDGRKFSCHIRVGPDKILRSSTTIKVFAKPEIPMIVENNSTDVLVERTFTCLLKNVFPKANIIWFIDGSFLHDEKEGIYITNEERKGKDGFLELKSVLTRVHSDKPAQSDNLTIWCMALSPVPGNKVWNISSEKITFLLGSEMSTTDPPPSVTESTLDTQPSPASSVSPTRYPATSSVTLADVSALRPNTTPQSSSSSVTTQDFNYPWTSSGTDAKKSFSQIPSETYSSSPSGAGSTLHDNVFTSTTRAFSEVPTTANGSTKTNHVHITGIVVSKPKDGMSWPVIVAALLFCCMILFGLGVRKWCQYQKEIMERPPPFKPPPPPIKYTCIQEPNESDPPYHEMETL
Nature of the assay: flow cytometry on activated cynomolgus monkey T cells, donor 1. (In general: A flow cytometer gives signals particle by particle.)

The target of assay [2] is T2, human CD96v1 on transiently transfected HEK cells (human, UniProt P40200 22-585).
T2 construct: whole, on cells
T2 sequence (looked up): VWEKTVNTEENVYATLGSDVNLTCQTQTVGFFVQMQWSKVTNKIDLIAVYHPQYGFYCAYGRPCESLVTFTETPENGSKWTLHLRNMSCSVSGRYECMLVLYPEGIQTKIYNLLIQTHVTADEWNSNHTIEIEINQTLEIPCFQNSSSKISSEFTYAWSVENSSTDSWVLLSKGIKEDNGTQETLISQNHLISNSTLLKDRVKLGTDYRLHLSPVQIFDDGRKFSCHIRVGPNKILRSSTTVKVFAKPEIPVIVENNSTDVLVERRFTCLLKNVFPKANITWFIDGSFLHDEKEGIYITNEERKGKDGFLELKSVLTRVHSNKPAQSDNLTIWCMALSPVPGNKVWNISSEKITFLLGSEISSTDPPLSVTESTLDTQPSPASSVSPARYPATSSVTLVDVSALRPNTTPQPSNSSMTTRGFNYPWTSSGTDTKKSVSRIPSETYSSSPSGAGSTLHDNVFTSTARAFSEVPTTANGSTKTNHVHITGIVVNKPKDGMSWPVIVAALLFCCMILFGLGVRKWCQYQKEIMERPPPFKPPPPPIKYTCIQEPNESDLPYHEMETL
Nature of the assay: flow cytometry on transiently transfected HEK cells (Human CD96v1).

Assay [3] has as its target T1, cynomolgus monkey CD96, native, on …. Nature of the assay: flow cytometry on activated cynomolgus monkey T cells, pooled donor.
Assay [4] deals with T3, human CD96v2 expressed on cells (CHO cells; transiently transfected HEK cells) (human, UniProt P40200-2 22-569).
T3 construct: whole, on cells; the cell is named under assay; also called CHO-huCD96; hCD96v2
T3 sequence (looked up): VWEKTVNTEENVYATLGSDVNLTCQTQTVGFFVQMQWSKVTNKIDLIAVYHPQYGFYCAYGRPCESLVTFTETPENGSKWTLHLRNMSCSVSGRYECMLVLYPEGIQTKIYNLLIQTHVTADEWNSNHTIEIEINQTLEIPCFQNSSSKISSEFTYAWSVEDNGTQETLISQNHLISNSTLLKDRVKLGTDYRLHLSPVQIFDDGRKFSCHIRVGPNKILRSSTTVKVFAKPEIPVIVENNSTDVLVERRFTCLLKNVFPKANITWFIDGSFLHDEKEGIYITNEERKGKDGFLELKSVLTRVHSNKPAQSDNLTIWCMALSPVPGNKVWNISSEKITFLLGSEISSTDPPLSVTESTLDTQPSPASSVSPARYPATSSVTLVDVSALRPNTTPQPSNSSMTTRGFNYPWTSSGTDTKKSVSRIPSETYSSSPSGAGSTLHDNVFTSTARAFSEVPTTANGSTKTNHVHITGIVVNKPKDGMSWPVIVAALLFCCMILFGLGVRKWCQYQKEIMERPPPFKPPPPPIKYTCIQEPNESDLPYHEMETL
Nature of the assay: flow cytometry on transiently transfected HEK cells; geometric mean, n = 3.

Assay [5] concerns the target T4, cynomolgus monkey CD96v2 expressed on cells (CHO cells; transiently transfected HEK cells) (cynomolgus monkey, UniProt A0A2K5TWV6 22-569).
T4 construct: the cell is named under assay; also called CHO-cyCD96; Cyno CD96v2
T4 sequence: T1 sequence
Described as above.

Assay [6] concerns the target T2, human CD96v1 on transiently transfected …. The description is as above.
In assay [7] the target is T5, cynomolgus monkey CD96v1 on transiently transfected HEK cells (cynomolgus monkey).
T5 construct: whole, on cells; also called Cyno CD96v1
Described as above.

Assay [8] addresses T6, blood derived cynomolgus monkey CD96v2 on transiently transfected HEK cells (cynomolgus monkey).
T6 construct: also called Blood derived Cyno CD96v2
The description is as above.

In assay [9] the target is T3, human CD96v2 expressed on cells (CHO …). Nature of the assay: flow cytometry, inhibition of human CD155-Fc-AF647 binding to CHO cells expressing human CD96v2; competitor CD155-Fc.

What is called EC50 (read off the curve) is the concentration giving half of the maximal effect. A word on the EC50: it is the concentration needed to bring the measured effect to its halfway point. A word on the IC50: it is the point on the concentration scale where inhibition reaches its midpoint.

B1: 42Y073-86F08-66 (antibody)
heavy: not shown
light: DIQLTQSPSSLSASVGDRVTITCRASQSISSYLNWYQQKPGKAPKLLIYAASSLQSGVPSRFSGSGSGTDFTLTISSLQPEDFATYYCQQVLHTITFGGGTKVEIKRTVAAPSVFIFPPSDEQLKSGTASVVCLLNNFYPREAKVQWKVDNALQSGNSQESVTEQDSKDSTYSLSSTLTLSKADYEKHKVYACEVTHQGLSSPVTKSFNRGEC
notes: also called GSK 6097608; GSK6097608
As for B1, the “EC50 (read off the curve)” value in [1] was around 0.05 nM; in assay [2], around 6 nM; in assay [3], around 0.05 nM. Also, the EC50 in assay [4] came to 6.44 nM; in assay [5] it was 7.88 nM; in [6], 5.28 nM; in assay [7] it was 9.17 nM; in [8] it was 7.34 nM. The molecule also gave an IC50 in assay [9] of 1.55 nM.
